Data as given in patent publication US20250218531A1 (ABSCI, published 2025).

Molecular target: human epidermal growth factor receptor 2 (HER2) extracellular domain (human, UniProt P04626 23-629)
Assay: SPR, Fab format

Binder	Kd [nM]	log(KD (M)) [log M]
De novo trastuzumab HCDR2|3 variant IDPADGYT / AREGGYGYYAMDY (Fab, V domains shown, also called AI Design 6) VH: EVQLVESGGGLVQPGGSLRLSCAASGFNIKDTYIHWVRQAPGKGLEWVARIDPADGYTRYADSVKGRFTISADTSKNTAYLQMNSLRAEDTAVYYCAREGGYGYYAMDYWGQGTLVTVSS VL: not shown	160	-6.8
Multi-step trastuzumab HCDR3 variant ARDGGRGRYAMDY (SEQ ID NO: 541) (Fab, V domains shown) VH: EVQLVESGGGLVQPGGSLRLSCAASGFNIKDTYIHWVRQAPGKGLEWVARIYPTNGYTRYADSVKGRFTISADTSKNTAYLQMNSLRAEDTAVYYCARDGGRGRYAMDYWGQGTLVTVSS VL: not shown	402	-6.4
Multi-step trastuzumab HCDR3 variant ARSSGYYYYGFVY (SEQ ID NO: 540) (Fab, V domains shown) VH: EVQLVESGGGLVQPGGSLRLSCAASGFNIKDTYIHWVRQAPGKGLEWVARIYPTNGYTRYADSVKGRFTISADTSKNTAYLQMNSLRAEDTAVYYCARSSGYYYYGFVYWGQGTLVTVSS VL: not shown	157	-6.8
Multi-step trastuzumab HCDR3 variant ARSGGRYTYGFDY (SEQ ID NO: 551) (Fab, V domains shown) VH: EVQLVESGGGLVQPGGSLRLSCAASGFNIKDTYIHWVRQAPGKGLEWVARIYPTNGYTRYADSVKGRFTISADTSKNTAYLQMNSLRAEDTAVYYCARSGGRYTYGFDYWGQGTLVTVSS VL: not shown	1410	-5.85
De novo trastuzumab HCDR2|3 variant IYPANGYT / ASSGGGYSYYYTY (Fab, V domains shown) VH: EVQLVESGGGLVQPGGSLRLSCAASGFNIKDTYIHWVRQAPGKGLEWVARIYPANGYTRYADSVKGRFTISADTSKNTAYLQMNSLRAEDTAVYYCASSGGGYSYYYTYWGQGTLVTVSS VL: not shown	476	-6.32
Multi-step trastuzumab HCDR3 variant ARSGGSSYYYYDY (SEQ ID NO: 508) (Fab, V domains shown) VH: EVQLVESGGGLVQPGGSLRLSCAASGFNIKDTYIHWVRQAPGKGLEWVARIYPTNGYTRYADSVKGRFTISADTSKNTAYLQMNSLRAEDTAVYYCARSGGSSYYYYDYWGQGTLVTVSS VL: not shown	1070	-5.97
Multi-step trastuzumab HCDR3 variant ARSGGYYHYGFVY (SEQ ID NO: 544) (Fab, V domains shown) VH: EVQLVESGGGLVQPGGSLRLSCAASGFNIKDTYIHWVRQAPGKGLEWVARIYPTNGYTRYADSVKGRFTISADTSKNTAYLQMNSLRAEDTAVYYCARSGGYYHYGFVYWGQGTLVTVSS VL: not shown	228	-6.64
Multi-step trastuzumab HCDR3 variant ARSRGSSSYMMDY (SEQ ID NO: 512) (Fab, V domains shown) VH: EVQLVESGGGLVQPGGSLRLSCAASGFNIKDTYIHWVRQAPGKGLEWVARIYPTNGYTRYADSVKGRFTISADTSKNTAYLQMNSLRAEDTAVYYCARSRGSSSYMMDYWGQGTLVTVSS VL: not shown	566	-6.25
De novo trastuzumab HCDR2|3 variant IDPENGYT / ARVGGYGYYYYDY (Fab, V domains shown) VH: EVQLVESGGGLVQPGGSLRLSCAASGFNIKDTYIHWVRQAPGKGLEWVARIDPENGYTRYADSVKGRFTISADTSKNTAYLQMNSLRAEDTAVYYCARVGGYGYYYYDYWGQGTLVTVSS VL: not shown	277	-6.56
Multi-step trastuzumab HCDR3 variant ARDRGVSGYYLYY (SEQ ID NO: 516) (Fab, V domains shown) VH: EVQLVESGGGLVQPGGSLRLSCAASGFNIKDTYIHWVRQAPGKGLEWVARIYPTNGYTRYADSVKGRFTISADTSKNTAYLQMNSLRAEDTAVYYCARDRGVSGYYLYYWGQGTLVTVSS VL: not shown	567	-6.25
Multi-step trastuzumab HCDR3 variant ARDGGRSYYSFYY (SEQ ID NO: 538) (Fab, V domains shown) VH: EVQLVESGGGLVQPGGSLRLSCAASGFNIKDTYIHWVRQAPGKGLEWVARIYPTNGYTRYADSVKGRFTISADTSKNTAYLQMNSLRAEDTAVYYCARDGGRSYYSFYYWGQGTLVTVSS VL: not shown	104	-6.98
Multi-step trastuzumab HCDR3 variant ARSGGSYSYSFDV (SEQ ID NO: 522) (Fab, V domains shown) VH: EVQLVESGGGLVQPGGSLRLSCAASGFNIKDTYIHWVRQAPGKGLEWVARIYPTNGYTRYADSVKGRFTISADTSKNTAYLQMNSLRAEDTAVYYCARSGGSYSYSFDVWGQGTLVTVSS VL: not shown	1070	-5.97
De novo trastuzumab HCDR2|3 variant IYPSNGYT / ARYRGSSSYYFDY (Fab, V domains shown) VH: EVQLVESGGGLVQPGGSLRLSCAASGFNIKDTYIHWVRQAPGKGLEWVARIYPSNGYTRYADSVKGRFTISADTSKNTAYLQMNSLRAEDTAVYYCARYRGSSSYYFDYWGQGTLVTVSS VL: not shown	907	-6.04
De novo trastuzumab HCDR2|3 variant IYPSSGYT / ASSGGRYYYYYDY (Fab, V domains shown) VH: EVQLVESGGGLVQPGGSLRLSCAASGFNIKDTYIHWVRQAPGKGLEWVARIYPSSGYTRYADSVKGRFTISADTSKNTAYLQMNSLRAEDTAVYYCASSGGRYYYYYDYWGQGTLVTVSS VL: not shown	591	-6.23
De novo trastuzumab HCDR2|3 variant IYPANGYT / ASSGGSSSYYYNY (Fab, V domains shown) VH: EVQLVESGGGLVQPGGSLRLSCAASGFNIKDTYIHWVRQAPGKGLEWVARIYPANGYTRYADSVKGRFTISADTSKNTAYLQMNSLRAEDTAVYYCASSGGSSSYYYNYWGQGTLVTVSS VL: not shown	554	-6.26
De novo trastuzumab HCDR2|3 variant IDPANGYT / ARVGGRGYYYYDY (Fab, V domains shown, also called AI Design 7) VH: EVQLVESGGGLVQPGGSLRLSCAASGFNIKDTYIHWVRQAPGKGLEWVARIDPANGYTRYADSVKGRFTISADTSKNTAYLQMNSLRAEDTAVYYCARVGGRGYYYYDYWGQGTLVTVSS VL: not shown	134	-6.87

Binder	Kd [nM]	log(KD (M)) [log M]
De novo trastuzumab HCDR2|3 variant IYPSNGYT / ARSSGYYSYSYDY (Fab, V domains shown) VH: EVQLVESGGGLVQPGGSLRLSCAASGFNIKDTYIHWVRQAPGKGLEWVARIYPSNGYTRYADSVKGRFTISADTSKNTAYLQMNSLRAEDTAVYYCARSSGYYSYSYDYWGQGTLVTVSS VL: not shown	230	-6.64
Multi-step trastuzumab HCDR3 variant ARDGGSSSYSYSY (SEQ ID NO: 535) (Fab, V domains shown) VH: EVQLVESGGGLVQPGGSLRLSCAASGFNIKDTYIHWVRQAPGKGLEWVARIYPTNGYTRYADSVKGRFTISADTSKNTAYLQMNSLRAEDTAVYYCARDGGSSSYSYSYWGQGTLVTVSS VL: not shown	146	-6.83
De novo trastuzumab HCDR2|3 variant IYPEDGST / ARSGGSSTYAYDY (Fab, V domains shown) VH: EVQLVESGGGLVQPGGSLRLSCAASGFNIKDTYIHWVRQAPGKGLEWVARIYPEDGSTRYADSVKGRFTISADTSKNTAYLQMNSLRAEDTAVYYCARSGGSSTYAYDYWGQGTLVTVSS VL: not shown	669	-6.17
Multi-step trastuzumab HCDR3 variant ARDGGGGVYAFTY (SEQ ID NO: 525) (Fab, V domains shown) VH: EVQLVESGGGLVQPGGSLRLSCAASGFNIKDTYIHWVRQAPGKGLEWVARIYPTNGYTRYADSVKGRFTISADTSKNTAYLQMNSLRAEDTAVYYCARDGGGGVYAFTYWGQGTLVTVSS VL: not shown	364	-6.44
Multi-step trastuzumab HCDR3 variant ARSGGGSYYYYDY (SEQ ID NO: 546) (Fab, V domains shown) VH: EVQLVESGGGLVQPGGSLRLSCAASGFNIKDTYIHWVRQAPGKGLEWVARIYPTNGYTRYADSVKGRFTISADTSKNTAYLQMNSLRAEDTAVYYCARSGGGSYYYYDYWGQGTLVTVSS VL: not shown	308	-6.51
De novo trastuzumab HCDR2|3 variant IYPSNGYT / ARYGGSYAYYFYY (Fab, V domains shown, also called AI Design 8) VH: EVQLVESGGGLVQPGGSLRLSCAASGFNIKDTYIHWVRQAPGKGLEWVARIYPSNGYTRYADSVKGRFTISADTSKNTAYLQMNSLRAEDTAVYYCARYGGSYAYYFYYWGQGTLVTVSS VL: not shown	18.6	-7.73
De novo trastuzumab HCDR2|3 variant IYSSDGYT / ARSGGSSYYYYDY (Fab, V domains shown) VH: EVQLVESGGGLVQPGGSLRLSCAASGFNIKDTYIHWVRQAPGKGLEWVARIYSSDGYTRYADSVKGRFTISADTSKNTAYLQMNSLRAEDTAVYYCARSGGSSYYYYDYWGQGTLVTVSS VL: not shown	810	-6.09
De novo trastuzumab HCDR2|3 variant IYPSNGYT / ARSGYYYSYSFDY (Fab, V domains shown) VH: EVQLVESGGGLVQPGGSLRLSCAASGFNIKDTYIHWVRQAPGKGLEWVARIYPSNGYTRYADSVKGRFTISADTSKNTAYLQMNSLRAEDTAVYYCARSGYYYSYSFDYWGQGTLVTVSS VL: not shown	348	-6.46
Multi-step trastuzumab HCDR3 variant ARSSGSSYYGFDY (SEQ ID NO: 526) (Fab, V domains shown) VH: EVQLVESGGGLVQPGGSLRLSCAASGFNIKDTYIHWVRQAPGKGLEWVARIYPTNGYTRYADSVKGRFTISADTSKNTAYLQMNSLRAEDTAVYYCARSSGSSYYGFDYWGQGTLVTVSS VL: not shown	668	-6.18
Multi-step trastuzumab HCDR3 variant ARSGGYYTYGFDY (SEQ ID NO: 548) (Fab, V domains shown) VH: EVQLVESGGGLVQPGGSLRLSCAASGFNIKDTYIHWVRQAPGKGLEWVARIYPTNGYTRYADSVKGRFTISADTSKNTAYLQMNSLRAEDTAVYYCARSGGYYTYGFDYWGQGTLVTVSS VL: not shown	338	-6.47
Multi-step trastuzumab HCDR3 variant ARSGGSSFYGMDY (SEQ ID NO: 519) (Fab, V domains shown) VH: EVQLVESGGGLVQPGGSLRLSCAASGFNIKDTYIHWVRQAPGKGLEWVARIYPTNGYTRYADSVKGRFTISADTSKNTAYLQMNSLRAEDTAVYYCARSGGSSFYGMDYWGQGTLVTVSS VL: not shown	680	-6.17
De novo trastuzumab HCDR2|3 variant IYPSNGYT / ARYYGGSMYYYGY (Fab, V domains shown) VH: EVQLVESGGGLVQPGGSLRLSCAASGFNIKDTYIHWVRQAPGKGLEWVARIYPSNGYTRYADSVKGRFTISADTSKNTAYLQMNSLRAEDTAVYYCARYYGGSMYYYGYWGQGTLVTVSS VL: not shown	109	-6.96
De novo trastuzumab HCDR2|3 variant IYPANGYT / AREGGVGYYSFAY (Fab, V domains shown) VH: EVQLVESGGGLVQPGGSLRLSCAASGFNIKDTYIHWVRQAPGKGLEWVARIYPANGYTRYADSVKGRFTISADTSKNTAYLQMNSLRAEDTAVYYCAREGGVGYYSFAYWGQGTLVTVSS VL: not shown	213	-6.67
Multi-step trastuzumab HCDR3 variant ARDGGGGFYAYDY (SEQ ID NO: 534) (Fab, V domains shown) VH: EVQLVESGGGLVQPGGSLRLSCAASGFNIKDTYIHWVRQAPGKGLEWVARIYPTNGYTRYADSVKGRFTISADTSKNTAYLQMNSLRAEDTAVYYCARDGGGGFYAYDYWGQGTLVTVSS VL: not shown	124	-6.91
Multi-step trastuzumab HCDR3 variant ARSGGSGYYSYNY (SEQ ID NO: 523) (Fab, V domains shown) VH: EVQLVESGGGLVQPGGSLRLSCAASGFNIKDTYIHWVRQAPGKGLEWVARIYPTNGYTRYADSVKGRFTISADTSKNTAYLQMNSLRAEDTAVYYCARSGGSGYYSYNYWGQGTLVTVSS VL: not shown	603	-6.22
